Key:
[1] = molecular target: HLA-A*01:01 with … (ERGIC3) from cells (human); assay: IP-MS, NCI-H1703 lysate, Rep1
[2] = molecular target: HLA-A*01:01 with … (RBM4) from cells (human); assay: IP-MS, NCI-H1703 lysate, Rep1
[3] = molecular target: HLA-A*01:01 with … (UBR2) from cells (human); assay: IP-MS, NCI-H1703 lysate, Rep1
[4] = molecular target: off-target HLA-A*01:01_… (ICE1) on cells (human); assay: IP-MS, NCI-H1703 lysate, Rep1
[5] = molecular target: off-target HLA-A*01:01_… (PTS) on cells (human); assay: IP-MS, NCI-H1703 lysate, Rep1
[6] = molecular target: HLA-A*01:01 with … (ERGIC3) from cells (human); assay: IP-MS, NCI-H1703 lysate, Rep2
[7] = molecular target: HLA-A*01:01 with … (RBM4) from cells (human); assay: IP-MS, NCI-H1703 lysate, Rep2
[8] = molecular target: HLA-A*01:01 with … (UBR2) from cells (human); assay: IP-MS, NCI-H1703 lysate, Rep2
[9] = molecular target: off-target HLA-A*01:01_… (ICE1) on cells (human); assay: IP-MS, NCI-H1703 lysate, Rep2
[10] = molecular target: off-target HLA-A*01:01_… (PTS) on cells (human); assay: IP-MS, NCI-H1703 lysate, Rep2
[11] = molecular target: HLA-A*01:01 with … (DSG3) from cells (human); assay: IP-MS, NCI-H1703 lysate, Rep1 (peptide also 0 with W6/32)
[12] = molecular target: HLA-A*01:01 with … (DSG4) from cells (human); assay: as above
[13] = molecular target: HLA-A*01:01 with … (DSG3) from cells (human); assay: IP-MS, NCI-H1703 lysate, Rep2 (peptide also 0 with W6/32)
[14] = molecular target: HLA-A*01:01 with … (DSG4) from cells (human); assay: as above
[15] = molecular target: HLA-A*01:01 with … (ERGIC3) from cells (human); assay: IP-MS, K562-A*01:01 lysate
[16] = molecular target: HLA-A*01:01 with … (RBM4) from cells (human); assay: IP-MS, K562-A*01:01 lysate
[17] = molecular target: HLA-A*01:01 with … (UBR2) from cells (human); assay: IP-MS, K562-A*01:01 lysate
[18] = molecular target: off-target HLA-A*01:01_… (PTS) on cells (human); assay: IP-MS, K562-A*01:01 lysate
[19] = molecular target: HLA-A*01:01 with … (DSG3) from cells (human); assay: IP-MS, NCI-H1703 lysate, Rep1
[20] = molecular target: HLA-A*01:01 with … (DSG4) from cells (human); assay: IP-MS, NCI-H1703 lysate, Rep1
[21] = molecular target: HLA-A*01:01 with … (ROBO1) on cells (human); assay: IP-MS, NCI-H1703 lysate, Rep1
[22] = molecular target: HLA-PEPTIDE target A*01:01_… (G2) on cells (human); assay: IP-MS, NCI-H1703 lysate, Rep1
[23] = molecular target: off-target HLA-A*01:01_… (KDM7A) on cells (human); assay: IP-MS, NCI-H1703 lysate, Rep1
[24] = molecular target: HLA-A*01:01 with … (DSG3) from cells (human); assay: IP-MS, NCI-H1703 lysate, Rep2
[25] = molecular target: HLA-A*01:01 with … (DSG4) from cells (human); assay: IP-MS, NCI-H1703 lysate, Rep2
[26] = molecular target: HLA-A*01:01 with … (ROBO1) on cells (human); assay: IP-MS, NCI-H1703 lysate, Rep2
[27] = molecular target: HLA-PEPTIDE target A*01:01_… (G2) on cells (human); assay: IP-MS, NCI-H1703 lysate, Rep2
[28] = molecular target: off-target HLA-A*01:01_… (KDM7A) on cells (human); assay: IP-MS, NCI-H1703 lysate, Rep2

Substance | copies per cell of the peptide recovered by immunoprecipitation (copies per cell) [1] | copies per cell of the peptide recovered by immunoprecipitation (copies per cell) [2] | copies per cell of the peptide recovered by immunoprecipitation (copies per cell) [3] | copies per cell of the peptide recovered by immunoprecipitation (copies per cell) [4] | copies per cell of the peptide recovered by immunoprecipitation (copies per cell) [5] | copies per cell of the peptide recovered by immunoprecipitation (copies per cell) [6] | copies per cell of the peptide recovered by immunoprecipitation (copies per cell) [7] | copies per cell of the peptide recovered by immunoprecipitation (copies per cell) [8] | copies per cell of the peptide recovered by immunoprecipitation (copies per cell) [9] | copies per cell of the peptide recovered by immunoprecipitation (copies per cell) [10] | also measured
control IgG antibodies (antibody) | 25 | 113 | 6 | 35 | 32 | 15 | 79 | 4 | 21 | 25 | copies per cell of the peptide recovered by immunoprecipitation (copies per cell) [11]: 0; copies per cell of the peptide recovered by immunoprecipitation (copies per cell) [12]: 0; copies per cell of the peptide recovered by immunoprecipitation (copies per cell) [13]: 0; copies per cell of the peptide recovered by immunoprecipitation (copies per cell) [14]: 0
W6/32 antibody | 3360 | 16700 | 891 | 2660 | 2930 | 3350 | 16700 | 876 | 2740 | 2980 | copies per cell of the peptide recovered by immunoprecipitation (copies per cell) [15]: 96; copies per cell of the peptide recovered by immunoprecipitation (copies per cell) [16]: 1000; copies per cell of the peptide recovered by immunoprecipitation (copies per cell) [17]: 6; copies per cell of the peptide recovered by immunoprecipitation (copies per cell) [18]: 91; copies per cell of the peptide recovered by immunoprecipitation (copies per cell) [19]: 0; copies per cell of the peptide recovered by immunoprecipitation (copies per cell) [20]: 0; copies per cell of the peptide recovered by immunoprecipitation (copies per cell) [21]: 554; copies per cell of the peptide recovered by immunoprecipitation (copies per cell) [22]: 3790; copies per cell of the peptide recovered by immunoprecipitation (copies per cell) [23]: 2; copies per cell of the peptide recovered by immunoprecipitation (copies per cell) [24]: 0; copies per cell of the peptide recovered by immunoprecipitation (copies per cell) [25]: 0; copies per cell of the peptide recovered by immunoprecipitation (copies per cell) [26]: 517; copies per cell of the peptide recovered by immunoprecipitation (copies per cell) [27]: 4040; copies per cell of the peptide recovered by immunoprecipitation (copies per cell) [28]: 2

Source: patent US20260062487A1
